How the values were obtained:
Assay in all cases: pull-down binding Z-score (relative to library population); higher = stronger binding
Conditions in all cases: RNA library: Library-2
[1] = tested on: TO-N3 (biotin conjugate)
Summary of the method: (§1)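 Cy5- or Cy3-end-labelled RNA library (1 μg) was heat-folded in phosphate/NaCl/KCl buffer and incubated 60 min at 25 °C with streptavidin beads carrying 100 pmol biotin-conjugated small molecule. After three washes, bound RNA was eluted in hot SDS and hybridised 20 h at 55.5 °C to a DNA barcode microarray. Binding was scored by subtracting a beads-only control, averaging barcoded replicate probes after dropping highest and lowest, and converting to a Z-score against library mean and standard deviation.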

[2] = tested on: TO-3-N3 (biotin conjugate)
Summary of the method: as §1

[3] = tested on: TO-N3-2 (biotin conjugate)
Summary of the method: as §1

[4] = tested on: TO-3-N3-2 (biotin conjugate)
Summary of the method: as §1

Row | Sequence | pull-down binding Z-score [1] | pull-down binding Z-score [2] | pull-down binding Z-score [3] | pull-down binding Z-score [4]
1 | UCACAGAAUGCUGUAGCCUCAAAGAUUUUGGGACUACCAACUCAAACUGUUGA | -0.673 | -0.508 | -0.508 | -0.271
2 | UCACUCACUGAGUGA [IAV_invivo_NP_5_Motif_1+IAV_invivo_NP_5_Motif_1] | -0.616 | -0.0667 | -1.45 | -0.357
3 | UCAGCUGGUUUUCCAUUUAAUAAAUGGGGUAAGGCUAGA | -0.355 | -0.104 | -0.851 | -0.448
4 | UCAGUUGUAAACAUUCAAAAAGAAAUUGA | 0.0554 | 0.0975 | 0.216 | 0.407
5 | UCAUAACAGAUGCGCAAACAGGUUCAUCUAAGUGUGUGUGUUCUGUUAUUGA [SHAPE_invivo_SARS-CoV-2_Motif_383] | -0.196 | -0.657 | 1.78 | -0.455
6 | UCAUACUGAAAGCGAACUUCAGUGUGA [IAV_invivo_NS1_NEP_8_Motif_9+IAV_invivo_NS1_NEP_8_Motif_9] | -0.352 | -0.0847 | -1.16 | -0.294
7 | UCAUCAGGAGAUGCCACAACUGCUUAUGCUAAUAGUGUUUUUAACAUUUGUCAAGCUGUCACGGCCAAUGUUAAUGCACUUUUAUCUACUGAUGG [DMSMaPseq_invitro_SARS-CoV-2_Multi_45_ComplexLevel_1] | -0.561 | -0.641 | -0.306 | -0.46
8 | UCAUUAAUUGA | -1.27 | -0.712 | -1.65 | -0.664
9 | UCCAAACGCAAGCUUCGAUAAUUUUAAGUUUGUAUGUGA [SHAPE_invivo_SARS-CoV-2_Motif_125] | -0.589 | -0.388 | -0.684 | -0.0327
10 | UCCAAGAACUUGGA | -1.35 | -0.941 | -1.73 | -0.88
11 | UCCACACGCAAGUUGUGGA | -1.18 | -0.719 | -1.4 | -0.579
12 | UCCACUAGCAUCUUUAUUGGAGAUGUGCCACAGCACACAGAUUGGUGGAAUUAGGAUGGUAGACAUCCUUAGGCAGAACCCAACAGAAGAGCAAGCCGUGGA | -0.545 | -0.764 | 0.0456 | -0.269
13 | UCCAUUUUUGGGUGUUUAUUACCACAAAAACAACAAAAGUUGGA [SHAPE_invitro_SARS-CoV-2_Motif_398] | -1.29 | -1.12 | -0.616 | 0.136
14 | UCCCAGUUUUGGGG [IAV_invivo_PB1_2_Motif_27+IAV_invivo_PB1_2_Motif_27] | -1.36 | -0.953 | -1.6 | -0.902
15 | UCCCAUGAGGGG [IAV_invivo_HA_4_Motif_6+IAV_invivo_HA_4_Motif_6] | -1.28 | -0.753 | -1.39 | -0.725
16 | UCCGAUUUACAGGA [DMSMaPseq_invitro_SARS-CoV-2_Motif_227] | -0.272 | -0.342 | -0.256 | -0.0117
17 | UCCGUAAGUAGGAUACUUACCUG [U1snRNP5ss-21] | -0.61 | -0.611 | -0.337 | -0.419

Row | Sequence | pull-down binding Z-score [1] | pull-down binding Z-score [2] | pull-down binding Z-score [3] | pull-down binding Z-score [4]
18 | UCCUAAAGAGGA | 0.703 | 1.2 | -0.731 | -0.431
19 | UCCUAAAGUGAAGUAUUUAUACUUUAUUAAAGGA [SHAPE_invitro_SARS-CoV-2_Motif_235] | -1.44 | -1.14 | -1.61 | -0.48
20 | UCCUAUUACGGA [SHAPE_invivo_SARS-CoV-2_Motif_121] | -0.905 | -0.479 | -1.27 | -0.643
21 | UCCUAUUUCUGAACAUGACUACCAGAUUGGUGGUUAUACUGAAAAAUGGGA | 0.012 | 0.1 | -0.953 | -0.375
22 | UCCUCAGUUUUACAUUCAACUCAGGA | -0.757 | -0.555 | -0.699 | -0.225
23 | UCCUCCCAGUGGCUGGUGGA [IAV_invivo_PB2_1_Motif_9+IAV_invivo_PB2_1_Motif_9] | -0.228 | -0.0747 | -0.225 | -0.322
24 | UCCUGUGGUAAUUUUAAAGUUACAAAAGGA | -0.795 | -0.823 | -0.669 | -0.424
25 | UCCUGUUUACCUUUUACAAUUAAUUGCCAGGA [SHAPE_invivo_SARS-CoV-2_Motif_533] | -1.01 | -0.84 | 0.272 | -0.351
26 | UCCUUACAUGGA | -0.321 | -0.557 | -1.16 | -0.672
27 | UCCUUUGACAUGAGUAAUGAAGGAUCUUAUUUCUUCGGAGACAAUGCAGAGGA [IAV_invivo_NP_5_Motif_26+IAV_invivo_NP_5_Motif_26] | -0.711 | -0.638 | -0.0358 | -0.286
28 | UCGCUUGCAAGUUGGAUUCAGAAUGAGUUUAACAAGGCAUGCGA [IAV_invivo_PA_3_Motif_18+IAV_invivo_PA_3_Motif_18] | -0.603 | -0.53 | -0.838 | -0.227
29 | UCGUCAAUAGGGCGA [IAV_invivo_PB2_1_Motif_18+IAV_invivo_PB2_1_Motif_18] | -0.554 | -0.228 | -0.56 | -0.184
30 | UCGUGUUAAAAAUCUGAAUUCUUCUAGAGUUCCUGAUCUUCUGGUCUAAACGAACUAAAUAUUAUAUUAGUUUUUCUGUUUGGAACUUUAAUUUUAGCCAUGG | -0.609 | -0.635 | -0.59 | -0.138
31 | UCUAAAUGAAACUCUUGUUACAAUGCCACUUGGCUAUGUAACACAUGGCUUAAAUUUGGA | -1.16 | -1.01 | -1.03 | -0.364
32 | UCUAACUUUAGAGUCCAACCAACAGAAUCUAUUGUUAGA | -0.148 | 0.171 | -0.918 | -0.138
33 | UCUAUACAGAACUGGA [SHAPE_invivo_SARS-CoV-2_Motif_242] | 0.79 | 1.18 | -0.496 | -0.0262
34 | UCUAUUAAAAUAUAAUGA [DMSMaPseq_invitro_SARS-CoV-2_Motif_395] | -0.185 | -0.0176 | -0.693 | -0.157

From the supplement of paper PMC11865577
